T1: NnABI5 (ABA Insensitive 5) (Nelumbo nucifera, UniProt A0A1U8B646 1-478)
T1 sequence: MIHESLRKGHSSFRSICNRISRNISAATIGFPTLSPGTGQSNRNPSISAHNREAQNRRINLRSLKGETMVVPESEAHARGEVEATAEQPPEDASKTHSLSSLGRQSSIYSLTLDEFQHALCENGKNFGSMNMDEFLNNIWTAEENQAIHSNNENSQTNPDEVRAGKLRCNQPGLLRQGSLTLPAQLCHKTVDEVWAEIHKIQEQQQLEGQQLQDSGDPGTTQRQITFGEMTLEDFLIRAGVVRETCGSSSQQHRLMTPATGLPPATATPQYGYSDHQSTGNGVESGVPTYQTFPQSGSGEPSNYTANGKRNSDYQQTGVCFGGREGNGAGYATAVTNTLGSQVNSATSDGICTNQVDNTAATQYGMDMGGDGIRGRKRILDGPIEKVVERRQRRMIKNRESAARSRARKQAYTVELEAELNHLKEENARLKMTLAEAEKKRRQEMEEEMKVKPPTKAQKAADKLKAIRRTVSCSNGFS

B1: NnSBEII promoter mutant probe (dsDNA)
DNA 1: GTGGCAACGACTGGTAAAAAAACTTACGTCACCCAT
DNA 2: ATGGGTGACGTAAGTTTTTTTACCAGTCGTTGCCAC
B2: NnSS2 promoter mutant probe (dsDNA)
DNA 1: CTTCCTCGGTTTTTCAAAAAATTTCTTCTGGAGTAT
DNA 2: ATACTCCAGAAGAAATTTTTTGAAAAACCGAGGAAG
B3: NnSS2 promoter probe (WT) (dsDNA)
DNA 1: CTTCCTCGGTTTTTCCACGTGTTTCTTCTGGAGTAT
DNA 2: ATACTCCAGAAGAAACACGTGGAAAAACCGAGGAAG
B4: NnSBEII promoter probe (WT) (dsDNA)
DNA 1: GTGGCAACGACTGGTCACGTGACTTACGTCACCCAT
DNA 2: ATGGGTGACGTAAGTCACGTGACCAGTCGTTGCCAC

What was measured:
[1] = molecular target: T1, NnABI5 (ABA Insensitive 5); experiment: EMSA; Not stated; EMSA with Beyotime chemiluminescent nucleic acid detection kit; settings: protein: recombinant; tags: His (pCold TF vector); chain copies: 2; blunt
[2] = molecular target: T1, NnABI5 (ABA Insensitive 5); experiment: EMSA; unlabelled probe weakens the shift in a dose-dependent way; Not stated; EMSA with Beyotime chemiluminescent nucleic acid detection kit; settings: protein: recombinant; tags: His (pCold TF vector); chain copies: 2; blunt

| Binder | binding result [1] | binding result [2] |
| --- | --- | --- |
| B1 | no binding | – |
| B2 | no binding | – |
| B3 | – | binds |
| B4 | – | binds |

— article PMC12610401, “The miR395b–ABI5 module regulates amylopectin branching and biosynthesis and affects lotus root quality”
